Measured values from US20160083465A1 (AVEO PHARMACEUTICALS, published 2016).

T1: mouse IgG1 Fc-mature human GDF15 fusion protein (mFc-rhGDF15) (mouse; human)
T1 construct: Made in CHOK1SV cells, purified by Protein A and size exclusion; also called mouse Fc fused to human GDF15
T1 chain: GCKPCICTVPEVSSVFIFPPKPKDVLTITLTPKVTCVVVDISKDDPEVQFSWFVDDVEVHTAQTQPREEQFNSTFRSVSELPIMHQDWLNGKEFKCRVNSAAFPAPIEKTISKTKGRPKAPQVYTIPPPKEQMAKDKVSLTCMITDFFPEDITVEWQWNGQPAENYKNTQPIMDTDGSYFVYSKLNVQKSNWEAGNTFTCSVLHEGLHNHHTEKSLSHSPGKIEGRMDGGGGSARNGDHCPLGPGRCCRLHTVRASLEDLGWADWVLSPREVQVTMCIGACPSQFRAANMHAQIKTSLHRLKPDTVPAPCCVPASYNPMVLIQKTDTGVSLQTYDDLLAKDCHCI

T2: mouse Fc mature recombinant cynomolgus monkey GDF15 (mFc-rcGDF15) (mouse; cynomolgus monkey, UniProt G7PWZ3 193-308)
T2 construct: mature; not shown: mouse Fc and any linker
T2 sequence (looked up): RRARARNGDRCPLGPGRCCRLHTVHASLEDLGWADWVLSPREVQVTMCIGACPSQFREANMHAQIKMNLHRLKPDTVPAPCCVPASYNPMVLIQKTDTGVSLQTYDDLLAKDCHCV

T3: cleaved-rhGDF15 (human, UniProt Q99988 197-308)
T3 sequence: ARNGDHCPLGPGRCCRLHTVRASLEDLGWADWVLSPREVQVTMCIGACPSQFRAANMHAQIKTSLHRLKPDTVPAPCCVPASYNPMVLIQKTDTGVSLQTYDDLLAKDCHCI

T4: rabbit IgG1 Fc-mature mouse GDF15 fusion protein (rFc-rmGDF15) (rabbit; mouse)
T4 construct: also called rabbit Fc mature recombinant mouse GDF15
T4 chain: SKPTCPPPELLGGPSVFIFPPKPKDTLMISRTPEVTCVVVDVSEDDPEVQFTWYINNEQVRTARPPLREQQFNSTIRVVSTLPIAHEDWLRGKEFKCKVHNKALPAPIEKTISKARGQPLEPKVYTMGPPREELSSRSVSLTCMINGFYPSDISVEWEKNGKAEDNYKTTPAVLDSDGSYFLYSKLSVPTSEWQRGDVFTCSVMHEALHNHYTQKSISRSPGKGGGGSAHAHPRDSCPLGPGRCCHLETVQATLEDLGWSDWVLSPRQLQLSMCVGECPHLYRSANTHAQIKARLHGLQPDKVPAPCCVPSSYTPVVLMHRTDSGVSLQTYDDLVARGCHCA


Columns and labels:
[1] = target: T1, mouse IgG1 Fc-mature human GDF15 fusion …; experiment: SPR Biacore T100, 37 C, antibody captured by anti-mouse IgG, antigen in solution
Method: Rabbit anti-mouse IgGs (GE Healthcare) were immobilized on carboxymethylated dextran CM4 sensor chips (GE Healthcare) by amine coupling, according to a standard protocol. Analyses were performed at 37° C. using PBS containing 0.05% surfactant P20 as running buffer. The antibodies were captured in individual flow cells at a flow rate of 10 μL/minute. Injection time was varied for each antibody to yield an Rmax between 30 and 60 RU. 250 μg/mL mouse Fc (Jackson ImmunoResearch, West Grove, Pa.) was injected at 30 μL/minute for 120 seconds to block non-specific binding of capture antibodies to mouse Fc portion of the recombinant GDF15 protein when needed. […] The dissociation phase was monitored for up to 1500 seconds. The surface was then regenerated with two 60-second injections of 10 mM Glycine-HCl, pH 1.7, at a flow rate of 30 μL/minute.
Kinetic parameters were determined using the kinetic function of the BIAevaluation software (GE Healthcare) with double reference subtraction.

[2] = target: T1, mouse IgG1 Fc-mature human GDF15 fusion …; experiment: SPR Biacore T100, 37 C, purified antibody captured by anti-human IgG Fc, antigen in solution
Method: (§1) Goat anti-human IgGs (Fc fragment specific, Jackson ImmunoResearch, West Grove, Pa.) were immobilized on carboxymethylated dextran CM4 sensor chips by amine coupling, according to a standard protocol. Analyses were performed at 37° C. using PBS containing 0.05% surfactant P20 as running buffer. The antibodies were captured in individual flow cells at a flow rate of 10 μL/minute. Injection time was varied for each antibody to yield an Rmax between 30 and 60 RU. […] The dissociation phase was monitored for up to 1500 seconds. The surface was then regenerated with two 60-second injections of 10 mM Glycine-HCl, pH 2.25, at a flow rate of 30 μL/minute.
(§2) Kinetic parameters were determined using the kinetic function of the BIAevaluation software (GE Healthcare) with double reference subtraction. Kinetic parameters for each antibody, kₐ (association rate constant), kd (dissociation rate constant), and KD (equilibrium dissociation constant) were determined Kinetic values of purified monoclonal antibodies on mFc-rhGDF15, mature human GDF15, rFc-rmGDF15, and mFc-rcGDF15 are summarized in Table 27.

[3] = target: T2, mouse Fc mature recombinant cynomolgus …; experiment: as above
Method: as §1, §2

cleaved-rhGDF15 = target: T3, cleaved-rhGDF15; experiment: as above
Method: as §1, §2

[4] = target: T4, rabbit IgG1 Fc-mature mouse GDF15 …; experiment: as above
Method: as §1, §2

Binder | Kd [1] [nM] | koff [1] [s⁻¹] | kon [1] [M⁻¹ s⁻¹] | Kd [2] [nM] | koff [2] [s⁻¹] | kon [2] [M⁻¹ s⁻¹] | Kd [3] [nM] | koff [3] [s⁻¹] | kon [3] [M⁻¹ s⁻¹] | Kd (cleaved-rhGDF15) [nM] | koff (cleaved-rhGDF15) [s⁻¹] | kon (cleaved-rhGDF15) [M⁻¹ s⁻¹] | Kd [4] [nM] | koff [4] [s⁻¹] | kon [4] [M⁻¹ s⁻¹]
04F08 (antibody, mouse IgG1, kappa, Murine monoclonal from hybridoma, IgG1 kappa; also called antibody 04F08) heavy: QVTLKESGPGILQPSQTLSLTCSFSGFSLSTYGMGVTWIRQPSGKGLEWLAHIYWDDDKRYNPSLKSRLTISKDTSNNQVFLKITSVDTADTATYYCAQTGYSNLFAYWGQGTLVTVSAAKTTPPSVYPLAPGSAAQTNSMVTLGCLVKGYFPEPVTVTWNSGSLSSGVHTFPAVLQSDLYTLSSSVTVPSSTWPSETVTCNVAHPASSTKVDKKIVPRDCGCKPCICTVPEVSSVFIFPPKPKDVLTITLTPKVTCVVVDISKDDPEVQFSWFVDDVEVHTAQTQPREEQFNSTFRSVSELPIMHQDWLNGKEFKCRVNSAAFPAPIEKTISKTKGRPKAPQVYTIPPPKEQMAKDKVSLTCMITDFFPEDITVEWQWNGQPAENYKNTQPIMDTDGSYFVYSKLNVQKSNWEAGNTFTCSVLHEGLHNHHTEKSLSHSPGK light: DIVMTQSQKFMSTSVGDRVSVTCKASQNVGTNVAWYQQKLGQSPKTLIYSASYRYSGVPDRFTGSGSGTDFTLTISNVQSEDLAEYFCQQYNSYPYTFGGGTKLEIKRADAAPTVSIFPPSSEQLTSGGASVVCFLNNFYPKDINVKWKIDGSERQNGVLNSWTDQDSKDSTYSMSSTLTLTKDEYERHNSYTCEATHKTSTSPIVKSFNRNEC | 0.19 | 0.00064 | 3.6e+06 | – | – | – | – | – | – | – | – | – | – | – | –
Hu01G06-138 (antibody, human IgG1, kappa) heavy: not shown light: DIQMTQSPSSLSASVGDRVTITCRTSENLHNYLAWYQQKPGKAPKLLIYDAKTLADGVPSRFSGSGSGTDYTLTISSLQPEDFATYYCQHFWSSPYTFGQGTKLEIKRTVAAPSVFIFPPSDEQLKSGTASVVCLLNNFYPREAKVQWKVDNALQSGNSQESVTEQDSKDSTYSLSSTLTLSKADYEKHKVYACEVTHQGLSSPVTKSFNRGEC | – | – | – | 0.011 | 4.1e-05 | 5.9e+06 | 0.025 | 5.3e-05 | 2.3e+06 | 0.0045 | 2.5e-05 | 7.9e+06 | 0.044 | 0.0008 | 1.9e+07
Hu01G06-127 (antibody, human IgG1, kappa) heavy: not shown light: DIQMTQSPSSLSASVGDRVTITCRTSENLHNYLAWYQQKPGKSPKLLIYDAKTLADGVPSRFSGSGSGTDYTLTISSLQPEDFATYYCQHFWSDPYTFGQGTKLEIKRTVAAPSVFIFPPSDEQLKSGTASVVCLLNNFYPREAKVQWKVDNALQSGNSQESVTEQDSKDSTYSLSSTLTLSKADYEKHKVYACEVTHQGLSSPVTKSFNRGEC | – | – | – | 0.018 | 4.2e-05 | 4.6e+06 | 0.0095 | 1.6e-05 | 1.8e+06 | 0.01 | 3.6e-05 | 6.1e+06 | 0.051 | 0.0021 | 3.9e+07
17B11 (antibody, mouse IgG1, kappa, Murine monoclonal from hybridoma, IgG1 kappa; also called antibody 17B11) heavy: QVTLKESGPGILQPSQTLSLTCSFSGFSLSTSGMGVSWIRQPSGKGLEWLAHNDWDDDKRYKSSLKSRLTISKDTSRNQVFLKITSVDTADTATYYCARRVGGLEGYFDYWGQGTTLTVSSAKTTPPSVYPLAPGSAAQTNSMVTLGCLVKGYFPEPVTVTWNSGSLSSGVHTFPAVLQSDLYTLSSSVTVPSSTWPSETVTCNVAHPASSTKVDKKIVPRDCGCKPCICTVPEVSSVFIFPPKPKDVLTITLTPKVTCVVVDISKDDPEVQFSWFVDDVEVHTAQTQPREEQFNSTFRSVSELPIMHQDWLNGKEFKCRVNSAAFPAPIEKTISKTKGRPKAPQVYTIPPPKEQMAKDKVSLTCMITDFFPEDITVEWQWNGQPAENYKNTQPIMDTDGSYFVYSKLNVQKSNWEAGNTFTCSVLHEGLHNHHTEKSLSHSPGK light: DIVLTQSPASLAVSLGQRATISCRASQSVSTSRFSYMHWFQQKPGQAPKLLIKYASNLESGVPARFSGSGSGTDFTLNIHPVEGEDTATYYCQHSWEIPYTFGGGTKLEIKRADAAPTVSIFPPSSEQLTSGGASVVCFLNNFYPKDINVKWKIDGSERQNGVLNSWTDQDSKDSTYSMSSTLTLTKDEYERHNSYTCEATHKTSTSPIVKSFNRNEC | 0.14 | 0.00051 | 3.7e+06 | – | – | – | – | – | – | – | – | – | – | – | –

More lines, in order of falling Kd [2], values ahead:

Kd [1] [nM] | koff [1] [s⁻¹] | kon [1] [M⁻¹ s⁻¹] | Kd [2] [nM] | koff [2] [s⁻¹] | kon [2] [M⁻¹ s⁻¹] | Kd [3] [nM] | koff [3] [s⁻¹] | kon [3] [M⁻¹ s⁻¹] | Kd (cleaved-rhGDF15) [nM] | koff (cleaved-rhGDF15) [s⁻¹] | kon (cleaved-rhGDF15) [M⁻¹ s⁻¹] | Kd [4] [nM] | koff [4] [s⁻¹] | kon [4] [M⁻¹ s⁻¹] | Binder
– | – | – | 0.014 | 4.4e-05 | 5.3e+06 | 0.038 | 7.9e-05 | 2.2e+06 | 0.01 | 6.2e-05 | 7.3e+06 | 0.055 | 0.0019 | 3.7e+07 | Hu01G06-135 (antibody, human IgG1, kappa) heavy: not shown light: DIQMTQSPSSLSASVGDRVTITCRTSENLHNYLAWYQQKPGKAPKLLIYDAKTLADGVPSRFSGSGSGTDYTLTISSLQPEDFATYYCQHFWSSPYTFGQGTKLEIKRTVAAPSVFIFPPSDEQLKSGTASVVCLLNNFYPREAKVQWKVDNALQSGNSQESVTEQDSKDSTYSLSSTLTLSKADYEKHKVYACEVTHQGLSSPVTKSFNRGEC
– | – | – | 0.0093 | 2.6e-05 | 5.3e+06 | 0.008 | 1.5e-05 | 2e+06 | 0.011 | 5.2e-05 | 6.5e+06 | 0.063 | 0.00072 | 1.1e+07 | Hu01G06-146 (antibody, human IgG1, kappa) heavy: not shown light: DIQMTQSPSSLSASVGDRVTITCRTSENLHNYLAWYQQKPGKSPKLLIYDAKTLADGVPSRFSGSGSGTDYTLTISSLQPEDFATYYCQHFWSDPYTFGQGTKLEIKRTVAAPSVFIFPPSDEQLKSGTASVVCLLNNFYPREAKVQWKVDNALQSGNSQESVTEQDSKDSTYSLSSTLTLSKADYEKHKVYACEVTHQGLSSPVTKSFNRGEC
– | – | – | 0.0065 | 2.1e-05 | 5.9e+06 | 0.01 | 2.4e-05 | 2.3e+06 | 0.0079 | 3.4e-05 | 7.9e+06 | 0.063 | 0.0014 | 2.2e+07 | Hu01G06-122 (antibody, human IgG1, kappa) heavy: not shown light: DIQMTQSPSSLSASVGDRVTITCRTSENLHNYLAWYQQKPGKAPKLLIYDAKTLADGVPSRFSGSGSGTDYTLTISSLQPEDFATYYCQHFWSSPYTFGQGTKLEIKRTVAAPSVFIFPPSDEQLKSGTASVVCLLNNFYPREAKVQWKVDNALQSGNSQESVTEQDSKDSTYSLSSTLTLSKADYEKHKVYACEVTHQGLSSPVTKSFNRGEC
